Results taken from patent US20150368311A1 (Sanofi, published 2015).
Non-standard residues stand in square brackets, D forms with d. No end group written: not given here. Ala(4-thiazolyl) = N[C@@H](Cc1cscn1)C(=O)O; 1Nal = N[C@@H](Cc1cccc2ccccc12)C(=O)O; Phe(2-F) = N[C@@H](Cc1ccccc1F)C(=O)O; Chg = N[C@H](C(=O)O)C1CCCCC1; Tle = CC(C)(C)[C@H](N)C(=O)O; Nle = CCCC[C@H](N)C(=O)O

Tests used:
Assay in all cases: cell-based or functional assay
human GLP-1 receptor [1] = biological target: T1, human GLP-1 receptor (human, UniProt P43220 24-463)
human glucagon receptor [2] = biological target: T2, human glucagon receptor (human, UniProt P47871 26-477)
T2 sequence (P47871 26-477): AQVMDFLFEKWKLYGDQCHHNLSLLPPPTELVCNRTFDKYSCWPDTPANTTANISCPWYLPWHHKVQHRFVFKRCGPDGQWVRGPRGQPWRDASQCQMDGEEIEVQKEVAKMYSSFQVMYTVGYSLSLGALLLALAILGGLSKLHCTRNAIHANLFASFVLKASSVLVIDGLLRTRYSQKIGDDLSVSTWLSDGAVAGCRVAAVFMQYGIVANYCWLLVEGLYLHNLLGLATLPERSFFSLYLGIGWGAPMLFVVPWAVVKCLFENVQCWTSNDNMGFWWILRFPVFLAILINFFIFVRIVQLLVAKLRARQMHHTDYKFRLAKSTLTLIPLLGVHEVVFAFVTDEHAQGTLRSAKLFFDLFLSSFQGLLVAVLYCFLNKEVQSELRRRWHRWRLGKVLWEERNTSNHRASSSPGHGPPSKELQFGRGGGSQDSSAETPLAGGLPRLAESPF

human GLP-1 receptor [3] = biological target: T1, human GLP-1 receptor; remark: listed apart in the source
human glucagon receptor [4] = biological target: T2, human glucagon receptor; remark: listed apart in the source

Binder | EC50 hGLP-1 R [pM], cAMP formation (human GLP-1 receptor [1]) | EC50 hGLUC R [pM], cAMP formation (human glucagon receptor [2]) | EC50 hGLP-1R, cAMP formation (human GLP-1 receptor [3]) | EC50 hGlucagon-R, cAMP formation (human glucagon receptor [4])
[Ala(4-thiazolyl)]SQGTFTSD[Chg]SKQ[Nle]ESRRAQDFIEWLLATGPESGAPPPS-OH (N-terminus assumed; SMILES CCCC[C@H](NC(=O)[C@H](CCC(N)=O)NC(=O)[C@H](CCCCN)NC(=O)[C@H](CO)NC(=O)[C@@H](NC(=O)[C@H](CC(=O)O)NC(=O)[C@H](CO)NC(=O)[C@@H](NC(=O)[C@H](Cc1ccccc1)NC(=O)[C@@H](NC(=O)CNC(=O)[C@H](CCC(N)=O)NC(=O)[C@H](CO)NC(=O)[C@@H](N)Cc1cscn1)[C@@H](C)O)[C@@H](C)O)C1CCCCC1)C(=O)N[C@@H](CCC(=O)O)C(=O)N[C@@H](CO)C(=O)N[C@@H](CCCNC(=N)N)C(=O)N[C@@H](CCCNC(=N)N)C(=O)N[C@@H](C)C(=O)N[C@@H](CCC(N)=O)C(=O)N[C@@H](CC(=O)O)C(=O)N[C@@H](Cc1ccccc1)C(=O)N[C@H](C(=O)N[C@@H](CCC(=O)O)C(=O)N[C@@H](Cc1c[nH]c2ccccc12)C(=O)N[C@@H](CC(C)C)C(=O)N[C@@H](CC(C)C)C(=O)N[C@@H](C)C(=O)N[C@H](C(=O)NCC(=O)N1CCC[C@H]1C(=O)N[C@@H](CCC(=O)O)C(=O)N[C@@H](CO)C(=O)NCC(=O)N[C@@H](C)C(=O)N1CCC[C@H]1C(=O)N1CCC[C@H]1C(=O)N1CCC[C@H]1C(=O)N[C@@H](CO)C(=O)O)[C@@H](C)O)[C@@H](C)CC) [SEQ ID NO: 20] | 38900 pM | 3.8 pM | – | –
[Ala(4-thiazolyl)]SQGTFTSD[Chg]SKQ[Nle]ESRRAQEFIEWLLATGPESGAPPPS-OH (N-terminus assumed; SMILES CCCC[C@H](NC(=O)[C@H](CCC(N)=O)NC(=O)[C@H](CCCCN)NC(=O)[C@H](CO)NC(=O)[C@@H](NC(=O)[C@H](CC(=O)O)NC(=O)[C@H](CO)NC(=O)[C@@H](NC(=O)[C@H](Cc1ccccc1)NC(=O)[C@@H](NC(=O)CNC(=O)[C@H](CCC(N)=O)NC(=O)[C@H](CO)NC(=O)[C@@H](N)Cc1cscn1)[C@@H](C)O)[C@@H](C)O)C1CCCCC1)C(=O)N[C@@H](CCC(=O)O)C(=O)N[C@@H](CO)C(=O)N[C@@H](CCCNC(=N)N)C(=O)N[C@@H](CCCNC(=N)N)C(=O)N[C@@H](C)C(=O)N[C@@H](CCC(N)=O)C(=O)N[C@@H](CCC(=O)O)C(=O)N[C@@H](Cc1ccccc1)C(=O)N[C@H](C(=O)N[C@@H](CCC(=O)O)C(=O)N[C@@H](Cc1c[nH]c2ccccc12)C(=O)N[C@@H](CC(C)C)C(=O)N[C@@H](CC(C)C)C(=O)N[C@@H](C)C(=O)N[C@H](C(=O)NCC(=O)N1CCC[C@H]1C(=O)N[C@@H](CCC(=O)O)C(=O)N[C@@H](CO)C(=O)NCC(=O)N[C@@H](C)C(=O)N1CCC[C@H]1C(=O)N1CCC[C@H]1C(=O)N1CCC[C@H]1C(=O)N[C@@H](CO)C(=O)O)[C@@H](C)O)[C@@H](C)CC) [SEQ ID NO: 24] | 8310 pM | 0.7 pM | – | –
HSQGTFTSDLSKQ[Nle]ESRRAQDFIEWLLATGPESGAPPPS-OH (N-terminus assumed; SMILES CCCC[C@H](NC(=O)[C@H](CCC(N)=O)NC(=O)[C@H](CCCCN)NC(=O)[C@H](CO)NC(=O)[C@H](CC(C)C)NC(=O)[C@H](CC(=O)O)NC(=O)[C@H](CO)NC(=O)[C@@H](NC(=O)[C@H](Cc1ccccc1)NC(=O)[C@@H](NC(=O)CNC(=O)[C@H](CCC(N)=O)NC(=O)[C@H](CO)NC(=O)[C@@H](N)Cc1c[nH]cn1)[C@@H](C)O)[C@@H](C)O)C(=O)N[C@@H](CCC(=O)O)C(=O)N[C@@H](CO)C(=O)N[C@@H](CCCNC(=N)N)C(=O)N[C@@H](CCCNC(=N)N)C(=O)N[C@@H](C)C(=O)N[C@@H](CCC(N)=O)C(=O)N[C@@H](CC(=O)O)C(=O)N[C@@H](Cc1ccccc1)C(=O)N[C@H](C(=O)N[C@@H](CCC(=O)O)C(=O)N[C@@H](Cc1c[nH]c2ccccc12)C(=O)N[C@@H](CC(C)C)C(=O)N[C@@H](CC(C)C)C(=O)N[C@@H](C)C(=O)N[C@H](C(=O)NCC(=O)N1CCC[C@H]1C(=O)N[C@@H](CCC(=O)O)C(=O)N[C@@H](CO)C(=O)NCC(=O)N[C@@H](C)C(=O)N1CCC[C@H]1C(=O)N1CCC[C@H]1C(=O)N1CCC[C@H]1C(=O)N[C@@H](CO)C(=O)O)[C@@H](C)O)[C@@H](C)CC) [SEQ ID NO: 26] | – | – | 1240 pM | 9.4 pM
[Ala(4-thiazolyl)]SQGTFTSD[Tle]SKQ[Nle]ESRRAQEFIEWLLATGPESGAPPPS-OH (N-terminus assumed; SMILES CCCC[C@H](NC(=O)[C@H](CCC(N)=O)NC(=O)[C@H](CCCCN)NC(=O)[C@H](CO)NC(=O)[C@@H](NC(=O)[C@H](CC(=O)O)NC(=O)[C@H](CO)NC(=O)[C@@H](NC(=O)[C@H](Cc1ccccc1)NC(=O)[C@@H](NC(=O)CNC(=O)[C@H](CCC(N)=O)NC(=O)[C@H](CO)NC(=O)[C@@H](N)Cc1cscn1)[C@@H](C)O)[C@@H](C)O)C(C)(C)C)C(=O)N[C@@H](CCC(=O)O)C(=O)N[C@@H](CO)C(=O)N[C@@H](CCCNC(=N)N)C(=O)N[C@@H](CCCNC(=N)N)C(=O)N[C@@H](C)C(=O)N[C@@H](CCC(N)=O)C(=O)N[C@@H](CCC(=O)O)C(=O)N[C@@H](Cc1ccccc1)C(=O)N[C@H](C(=O)N[C@@H](CCC(=O)O)C(=O)N[C@@H](Cc1c[nH]c2ccccc12)C(=O)N[C@@H](CC(C)C)C(=O)N[C@@H](CC(C)C)C(=O)N[C@@H](C)C(=O)N[C@H](C(=O)NCC(=O)N1CCC[C@H]1C(=O)N[C@@H](CCC(=O)O)C(=O)N[C@@H](CO)C(=O)NCC(=O)N[C@@H](C)C(=O)N1CCC[C@H]1C(=O)N1CCC[C@H]1C(=O)N1CCC[C@H]1C(=O)N[C@@H](CO)C(=O)O)[C@@H](C)O)[C@@H](C)CC) [SEQ ID NO: 25] | 23100 pM | 0.8 pM | – | –
[Ala(4-thiazolyl)]SQGTFTSD[Phe(2-F)]SKQLESRRAQDFIEWLLATGPESGAPPPS-OH (N-terminus assumed; SMILES CC[C@H](C)[C@H](NC(=O)[C@H](Cc1ccccc1)NC(=O)[C@H](CC(=O)O)NC(=O)[C@H](CCC(N)=O)NC(=O)[C@H](C)NC(=O)[C@H](CCCNC(=N)N)NC(=O)[C@H](CCCNC(=N)N)NC(=O)[C@H](CO)NC(=O)[C@H](CCC(=O)O)NC(=O)[C@H](CC(C)C)NC(=O)[C@H](CCC(N)=O)NC(=O)[C@H](CCCCN)NC(=O)[C@H](CO)NC(=O)[C@H](Cc1ccccc1F)NC(=O)[C@H](CC(=O)O)NC(=O)[C@H](CO)NC(=O)[C@@H](NC(=O)[C@H](Cc1ccccc1)NC(=O)[C@@H](NC(=O)CNC(=O)[C@H](CCC(N)=O)NC(=O)[C@H](CO)NC(=O)[C@@H](N)Cc1cscn1)[C@@H](C)O)[C@@H](C)O)C(=O)N[C@@H](CCC(=O)O)C(=O)N[C@@H](Cc1c[nH]c2ccccc12)C(=O)N[C@@H](CC(C)C)C(=O)N[C@@H](CC(C)C)C(=O)N[C@@H](C)C(=O)N[C@H](C(=O)NCC(=O)N1CCC[C@H]1C(=O)N[C@@H](CCC(=O)O)C(=O)N[C@@H](CO)C(=O)NCC(=O)N[C@@H](C)C(=O)N1CCC[C@H]1C(=O)N1CCC[C@H]1C(=O)N1CCC[C@H]1C(=O)N[C@@H](CO)C(=O)O)[C@@H](C)O) [SEQ ID NO: 21] | 49700 pM | 1.4 pM | – | –
[Ala(4-thiazolyl)]SQGTFTSD[Chg]SKQLESRRAQDFIEWLLATGPESGAPPPS-OH (N-terminus assumed; SMILES CC[C@H](C)[C@H](NC(=O)[C@H](Cc1ccccc1)NC(=O)[C@H](CC(=O)O)NC(=O)[C@H](CCC(N)=O)NC(=O)[C@H](C)NC(=O)[C@H](CCCNC(=N)N)NC(=O)[C@H](CCCNC(=N)N)NC(=O)[C@H](CO)NC(=O)[C@H](CCC(=O)O)NC(=O)[C@H](CC(C)C)NC(=O)[C@H](CCC(N)=O)NC(=O)[C@H](CCCCN)NC(=O)[C@H](CO)NC(=O)[C@@H](NC(=O)[C@H](CC(=O)O)NC(=O)[C@H](CO)NC(=O)[C@@H](NC(=O)[C@H](Cc1ccccc1)NC(=O)[C@@H](NC(=O)CNC(=O)[C@H](CCC(N)=O)NC(=O)[C@H](CO)NC(=O)[C@@H](N)Cc1cscn1)[C@@H](C)O)[C@@H](C)O)C1CCCCC1)C(=O)N[C@@H](CCC(=O)O)C(=O)N[C@@H](Cc1c[nH]c2ccccc12)C(=O)N[C@@H](CC(C)C)C(=O)N[C@@H](CC(C)C)C(=O)N[C@@H](C)C(=O)N[C@H](C(=O)NCC(=O)N1CCC[C@H]1C(=O)N[C@@H](CCC(=O)O)C(=O)N[C@@H](CO)C(=O)NCC(=O)N[C@@H](C)C(=O)N1CCC[C@H]1C(=O)N1CCC[C@H]1C(=O)N1CCC[C@H]1C(=O)N[C@@H](CO)C(=O)O)[C@@H](C)O) [SEQ ID NO: 23] | 50700 pM | 3.5 pM | – | –
[Ala(4-thiazolyl)]SQGTFTSD[1Nal]SKQLESRRAQDFIEWLLATGPESGAPPPS-OH (N-terminus assumed; SMILES CC[C@H](C)[C@H](NC(=O)[C@H](Cc1ccccc1)NC(=O)[C@H](CC(=O)O)NC(=O)[C@H](CCC(N)=O)NC(=O)[C@H](C)NC(=O)[C@H](CCCNC(=N)N)NC(=O)[C@H](CCCNC(=N)N)NC(=O)[C@H](CO)NC(=O)[C@H](CCC(=O)O)NC(=O)[C@H](CC(C)C)NC(=O)[C@H](CCC(N)=O)NC(=O)[C@H](CCCCN)NC(=O)[C@H](CO)NC(=O)[C@H](Cc1cccc2ccccc12)NC(=O)[C@H](CC(=O)O)NC(=O)[C@H](CO)NC(=O)[C@@H](NC(=O)[C@H](Cc1ccccc1)NC(=O)[C@@H](NC(=O)CNC(=O)[C@H](CCC(N)=O)NC(=O)[C@H](CO)NC(=O)[C@@H](N)Cc1cscn1)[C@@H](C)O)[C@@H](C)O)C(=O)N[C@@H](CCC(=O)O)C(=O)N[C@@H](Cc1c[nH]c2ccccc12)C(=O)N[C@@H](CC(C)C)C(=O)N[C@@H](CC(C)C)C(=O)N[C@@H](C)C(=O)N[C@H](C(=O)NCC(=O)N1CCC[C@H]1C(=O)N[C@@H](CCC(=O)O)C(=O)N[C@@H](CO)C(=O)NCC(=O)N[C@@H](C)C(=O)N1CCC[C@H]1C(=O)N1CCC[C@H]1C(=O)N1CCC[C@H]1C(=O)N[C@@H](CO)C(=O)O)[C@@H](C)O) [SEQ ID NO: 22] | 8570 pM | 1 pM | – | –
